{
  "source": "patent US20050053613A1",
  "biological_target": "CD8 on peripheral blood T cells (UniProt P01732)",
  "test": "cell-based or functional assay",
  "data": [
    {"substance": "gp180, mAb B9 affinity-purified material from T84 cells (from UniProt P06731 35-685)", "values": [
      {"measurement": "killing in a CTL assay testing alloreactive CTL", "value": "< 15", "unit": "%"}
    ]}
  ]
}
